Source: publication PMC4930773, “Cataract-causing mutation S228P promotes βB1-crystallin aggregation and degradation by separating two interacting loops in C-terminal domain” (Protein & Cell, 2016)

Molecular target: T1, wild type βB1-crystallin (human, UniProt P53674 1-252)
T1 construct: human βB1-crystallin (CRYBB1), cloned from a human lens cDNA library into pET28a; no cleavage of the tag is described; also called WT βB1; WT; source: E. coli BL21 (DE3), purified (Ni-NTA, Superdex 200 gel filtration); not shown: His tag, N-terminal, kept
T1 sequence (looked up): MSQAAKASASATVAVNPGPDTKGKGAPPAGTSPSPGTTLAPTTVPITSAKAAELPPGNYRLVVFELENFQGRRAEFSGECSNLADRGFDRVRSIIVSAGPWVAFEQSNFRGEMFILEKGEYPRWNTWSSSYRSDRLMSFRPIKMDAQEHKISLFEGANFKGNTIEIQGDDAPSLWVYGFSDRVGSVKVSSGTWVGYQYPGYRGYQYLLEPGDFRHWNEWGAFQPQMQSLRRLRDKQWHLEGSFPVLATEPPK
Test: SEC; equal molar homomers mixed and incubated at 37°C, aggregates removed by centrifugation; Superdex 200, buffer A (20 mmol/L sodium phosphate, 150 mmol/L NaCl, 1 mmol/L EDTA, 1 mmol/L DTT, pH 7.0), 30 µmol/L protein; SDS-PAGE of soluble and insoluble fractions alongside
Details: both partners purified

B1: βA3-crystallin (natural protein, human, UniProt P05813 1-215, looked up)
chain: METQAEQQELETLPTTKMAQTNPTPGSLGPWKITIYDQENFQGKRMEFTSSCPNVSERSFDNVRSLKVESGAWIGYEHTSFCGQQFILERGEYPRWDAWSGSNAYHIERLMSFRPICSANHKESKMTIFEKENFIGRQWEISDDYPSLQAMGWFNNEVGSMKIQSGAWVCYQYPGYRGYQYILECDHHGGDYKHWREWGSHAQTSQIQSIRRIQQ
notes: source: E. coli BL21 (DE3), purified (Ni-NTA, Superdex 200 gel filtration)
  binding result: binds
